From patent US8835136B2, “Engineered amine dehydrogenases and methods of use thereof” (Georgia Tech Research Corporation, priority 2012, dated 2014)
Numbering of substitutions follows the chain as printed. Numbers in names are those of the source. ≈ marks a conversion by molar mass, not a printed value.

Key:
[1] = Solubility of PFPA substrate; format: physicochemical
Method: The enzyme tolerates acetone concentrations as high as 20% v/v. The PFPA substrate has a limited solubility of 40 mM in aqueous media, but was increased to 60 mM with the addition of acetone.

[2] = Reductive amination, spectrophotometric assay at 340 nm; format: biochemical; details: for Reductive amination specific activity: maximum specific activity, nonlinear fit
Method: (§1) Activity of purified proteins was measured using a spectrophotometric assay at 340 nm, corresponding to the cofactor nicotinamide adenine dinucleotide (NADH, ε340=6220 M^−1 cm^−1) (Dawson, et al., Clarendon Press, (1989). For reductive amination, reactions took place in 500 mM NH4Cl/NH4OH at pH 9.6, with 200 μM NADH and 20 mM of the ketone substrate, unless otherwise specified. For oxidative deamination, reactions took place in 0.1 M NaHCO3/Na2CO3 buffer at pH 10.0, with 1 mM NAD+ with 10 mM of the amine substrate of interest. All reactions were performed at 25° C. unless otherwise specified. Enzyme was added in 10 μL aliquots in dilute concentrations. Enzyme concentrations varied upon activity levels with the substrate present, but were dilute enough to ensure linear conversion kinetics over the analytical time period (10 min to 30 min). Specific activities were then calculated from the stoichiometric conversion of cofactor as determine by the change in absorbance at 340 nm over time.

[3] = Oxidative deamination, spectrophotometric assay at 340 nm; format: biochemical; details: for Oxidative deamination specific activity: maximum specific activity, 1,3-DMBA
Method: as §1, with “For oxidative deamination, reactions took place in 0.1 M NaHCO3/Na2CO3 buffer at pH 10.0, with 1 mM NAD+ with 10 mM of the amine substrate of interest.” left out

[4] = Native leucine dehydrogenase activity; format: biochemical
Method: as §1

[5] = Oxidative deamination, spectrophotometric assay at 340 nm; format: biochemical
Method: as §1, with “For oxidative deamination, reactions took place in 0.1 M NaHCO3/Na2CO3 buffer at pH 10.0, with 1 mM NAD+ with 10 mM of the amine substrate of interest.” left out
The enantioselectivity was initially estimated by measuring the deamination activity toward individual enantiomers of methylbenzylamine (MBA). […] A preference towards (R)-MBA over the corresponding (S)-enantiomer was evident in the discrepancies between the deamination activities of 0.586 U mg^−1 and 0.002 U mg^−1, respectively. These preliminary results were corroborated through direct measurement of the enantioselectivity of the MIBK amination in producing chiral 1,3-DMBA.

[6] = Conversion with GDH cofactor recycle system (LeuDH-AmDH); format: biochemical; details: 10 mM MIBK
Method: Initial rate kinetic measurements are used primarily in the determination of kinetic parameters to avoid second-order effects and product inhibition. The enzyme's ability to reach complete substrate conversion cannot be determined from these initial rate experiments, and was instead evaluated by chiral GC of overnight conversion with a GDH recycle system. The GDH regenerates the expensive NADH by redox reaction of NAD+ and inexpensive glucose (FIG. 1). In 1.5 mL reactions, replicates containing 10 mM MIBK substrate was mixed with an excess of 12 mM glucose, 10 U GDH, and a catalytic amount of NADH (200 μM). Histag purified K67S/E113V/N261L/V290C LeuDH-AmDH (0.13 mg) was added to each reaction and allowed to convert for 18 hours. An additional 0.13 mg of enzyme was then added and allowed to react for 10 hours to achieve the maximum conversion. One mL aliquots of the final reaction media were adjusted to pH>13 by the addition of 100 μL of 10 N NaOH and derivatized in toluene according to the TFAA protocol.
The product amine was additionally confirmed through ^1H NMR. A 175 mL-scale amination reaction with GDH cofactor recycle was performed similar to previous conversion experiments. […] Following separation, the solvent was removed through rotovap distillation, and the purified product was analyzed by ^1H NMR. […]

[7] = Amination of phenylpyruvate; format: biochemical; details: 500 mM NH4Cl/NH4OH pH 9.6, 200 μM NADH, 5 mM phenylpyruvate, 25° C.
Method: (§2) The wild-type PheDH from B. badius was characterized to ensure proper expression and folding prior to mutation. […] KM values were determined for the substrates when possible, and corresponded well to those values found in literature (110). Additionally, the K1 value of ammonia was determined to be 5.0 M. The KM of phenylpyruvate could not be determined due to its high absorbance at the analytical wavelength. The wild-type enzyme was determined to be properly folded and active.

[8] = Kinetic parameters for ammonia (PheDH / PheDH-AmDH); format: biochemical; details: amination of phenylpyruvate; read-out: KM, NH3
Method: as §2
Kinetic parameters, kcat and KM, were determined for the enzyme and each of the reductive amination substrates; respectively. […] The kcat value for this AmDH enzyme with all three substrates saturated in aqueous NH4Cl/NH4OH buffer at pH 9.6 was 6.85 s^−1 at 25° C. This represents a near 15-fold enhancement above the maximum observed kcat of 0.46 s^−1 of the previously developed LeuDH-AmDH.

Deamination of L-Phe = format: biochemical; details: 0.1 M Glycine pH 10.0, 1 mM NAD+, 20 mM L-Phe, 25° C.
Method: as §2

[9] = purified LeuDH library 10/11 hits

With CC(=O)Cc1ccc(F)cc1 [PFPA, para-fluoro phenyl acetone] the solubility ([1]; aqueous media) was 40 mM (≈ 6090 µg/mL) and the solubility ([1]; aqueous media with added acetone, aqueous with cosolvent or surfactant or cyclodextrin, with the addition of acetone) was 60 mM (≈ 9130 µg/mL).

B1: WT: LeuDH from Bacillus stearothermophilus, SEQ ID NO:4 (protein, listed as Bacillus stearothermophilus)
chain: ELFQYMEKYDYEQVLFCQDKESGLKAIIVIHDTTLGPALGGTRMWMYNSEEEALEDALRLARGMTYKNAAAGLNLGGGKTVIIGDPRKDKNEAMFRAFGRFIQGLNGRYITAEDVGTTVADMDIIYQETDYVTGISPEFGSSGNPSPATAYGVYRGMKAAAKEAFGSDSLEGKVVAVQGVGNVAYHLCRHLHEEGAKLIVTDINKEAVARAVEEFGAKAVDPNDIYGVECDIFAPCALGGIINDQTIPQLKAKVIAGSADNQLKEPRHGDMIHEMGIVYAPDYVINAGGVINVADELYGYNRERAMKKIEQIYDNIEKVFAIAKRDNIPTYVAADRMAEERIETMRKARSQFLQNGHHILSRRRAR
In the case of B1, the “activity for reductive amination” value ([2]; MIBK) is reported as “no measurable activity”, the “Reductive amination specific activity” value ([2]; MIBK) is reported as “n.m.^[c]” and the “Oxidative deamination specific activity” value [3] is reported as “n.m”. For the same molecule, the “native activity toward 1-Leu” value [4] was 112 U mg^−1.

B2: K67S/E113V/N261L/V290C: LeuDH-AmDH quadruple variant, SEQ ID NO:10, library 11 (protein)
chain: B1 chain with M64S, K67M, E113V, N261L, V290C
For B2, the “Specific activity, acetophenone” value ([2]; 20 mM substrate) was 58.8 mU mg^−1 protein, the “Specific activity, cyclohexanone” value ([2]; 20 mM substrate) was 123.4 mU mg^−1 protein and the “Specific activity, ethyl pyruvate” value ([2]; 20 mM substrate) was 13.2 mU mg^−1 protein. For the same molecule, the “Specific activity, ethyl-3-oxohexanoate” value ([2]; 20 mM substrate) was 14.0 mU mg^−1 protein, the “Specific activity, methyl acetoacetate” value ([2]; 20 mM substrate) was 4.5 mU mg^−1 protein and the kcat ([2]; MIBK amination) was 0.46 s⁻¹. The Km ([2]; MIBK substrate, read-out: KM (reductive amination)) was 15.1 mM, the amination activity ([2]; MIBK, non-linear Michaelis-Menten fit) was 0.69 U mg^−1 and the “Reductive amination specific activity” value ([2]; MIBK) was 0.690 U mg^−1 protein. For the same molecule, the “Amination of MIBK Vmax” value [2, 9] was 0.331 ± 0.07, the Km ([2]; purified LeuDH library 10/11 hits, read-out: Amination of MIBK KM) was 18.7 ± 11.7 mM and the “Specific activity, cyclohexylamine” value ([3]; 20 mM substrate) was 56.0 mU mg^−1 protein. For the same molecule, the “Specific activity, (R/S)-MBA” value ([3]; 40 mM racemic, 20 mM of each enantiomer) was 784.6 mU mg^−1 protein, the Km ([3]; 1,3-DMBA substrate, read-out: KM (oxidative deamination)) was 57.5 mM and the “Oxidative deamination specific activity” value [3] was 2.64 U mg^−1 protein. For the same molecule, the “Deamination of 1,3-DMBA Vmax” value [3, 9] was 2.350 ± 0.26, the Km ([3]; purified LeuDH library 10/11 hits, read-out: Deamination of 1,3-DMBA KM) was 41.9 ± 9.7 mM and the “deamination activity toward (R)-MBA” value [5] was 0.586 U mg^−1. The “deamination activity toward (S)-MBA” value [5] was 0.002 U mg^−1, the “Specific activity, (R)-MBA” value ([5]; 20 mM substrate) was 586.3 mU mg^−1 protein and the “Specific activity, (S)-MBA” value ([5]; 20 mM substrate) was 1.6 mU mg^−1 protein. For the same molecule, the average substrate conversion ([6]; 1.5 mL, 18 h + 10 h, chiral GC) was 92.5% and the conversion ([6]; 175 mL-scale, 48 hours) was 84.7%.

B3: Wild Type: PheDH from Bacillus badius, SEQ ID NO:1 (protein, listed as Bacillus badius)
chain: SLVEKTSIIKDFTLFEKMSEHEQVVFCNDPATGLRAIIAIHDTTLGPALGGCRMQPYNSVEEALEDALRLSKGMTYKCAASDVDFGGGKAVIIGDPQKDKSPELFRAFGQFVDSLGGRFYTGTDMGTNMEDFIHAMKETNCIVGVPEAYGGGGDSSIPTAMGVLYGIKATNKMLFGKDDLGGVTYAIQGLGKVGYKVAEGLLEEGAHLFVTDINEQTLEAIQEKAKTTSGSVTVVASDEIYSQEADVFVPCAFGGVVNDETMKQFKVKAIAGSANNQLLTEDHGRHLADKGILYAPDYIVNSGGLIQVADELYEVNKERVLAKTKHIYDAILEVYQQAELDQITTMEAANRMCEQRMAARGRRNSFFTSSVKPKWDIRN
In the case of B3, the “activity in the amination of phenylpyruvate” value [7] is reported as “greater than 257 U mg^−1”, the “Amination Activity 40 mM MIBK, kcat” value ([2]; 500 mM NH4Cl/NH4OH pH 9.6, 200 μM NADH, 25° C.) is reported as “—No Activity—” and the “Deamination Activity 40 mM 1,3-DMBA, kcat” value ([3]; 0.1M Glycine pH 10.0, 1 mM NAD+, 25° C.) is reported as “—No Activity—”. The Km [8] was 64.5 mM and the “activity in the deamination of L-Phe” value (Deamination of L-Phe) was 39.5 U mg^−1.
